Patent US20220177594A1 (ZOETIS SERVICES, published 2022)
Residue numbers refer to the chain shown, from its start.

B1: Mu_09E09_VH (SEQ ID NO: 35)_S35A (antibody, V domains shown)
VH: DVKLVESGEGLVKPGGSLKLSCAASGFTFSSYAMAWVRQTPEKRLEWVAYISSGGDYIYYADTVKGRFTISRDNARNTLYLQMSSLKSEDTAMYYCTRDPITGTFAYWGQGTLVTVSA
VL: DLQMTQTTSSLSASLGDRVTISCRASQDINNYLNWYQQKPDGTVKLLIYYTSTLHSGVPSRFSGSGSGTDYSLTISNLEQEDIATYFCQQGNTLPWTFGGGTKLEIKR
B2: Mu_10F07_VH (SEQ ID NO: 39)_I101A (antibody, V domains shown)
VH: B1 VH with A35S, A49T, I58F, I101A
VL: B1 VL with L2I, N30T, Y71F, N92H, T93M
B3: Mu_09E09_VL (SEQ ID NO: 37)_Y50A (antibody, V domains shown)
VH: B1 VH with A35S
VL: B1 VL with Y50A
B4: Mu_09E09_VL (SEQ ID NO: 37)_Y32A (antibody, V domains shown)
VH: B1 VH with A35S
VL: B1 VL with Y32A
B5: Mu_09E09_VL (SEQ ID NO: 37)_N92A (antibody, V domains shown)
VH: B1 VH with A35S
VL: B1 VL with N92A
B6: Mu_09E09_VH (SEQ ID NO: 35)_F105A (antibody, V domains shown)
VH: B1 VH with A35S, F105A
VL: B1 VL
B7: Mu_09E09_VL (SEQ ID NO: 37)_G91A (antibody, V domains shown)
VH: B1 VH with A35S
VL: B1 VL with G91A
B8: Mu_09E09_VH (SEQ ID NO: 35)_Y59A (antibody, V domains shown)
VH: B1 VH with A35S, Y59A
VL: B1 VL
B9: Mu_09E09_VH (SEQ ID NO: 35)_Y57A (antibody, V domains shown)
VH: B1 VH with A35S, Y57A
VL: B1 VL
B10: Mu_09E09_VL (SEQ ID NO: 37)_L94A (antibody, V domains shown)
VH: B1 VH with A35S
VL: B1 VL with L94A
B11: Mu_10F07_VL (SEQ ID NO: 41)_T53A (antibody, V domains shown)
VH: B1 VH with A35S, A49T, I58F
VL: B1 VL with L2I, N30T, T53A, Y71F, N92H, T93M
B12: Mu_10F07_VL (SEQ ID NO: 41)_T97A (antibody, V domains shown)
VH: B1 VH with A35S, A49T, I58F
VL: B1 VL with L2I, N30T, Y71F, N92H, T93M, T97A
B13: Mu_09E09_VL (SEQ ID NO: 37)_N34A (antibody, V domains shown)
VH: B1 VH with A35S
VL: B1 VL with N34A
B14: Mu_10F07_VH (SEQ ID NO: 39)_Y107A (antibody, V domains shown)
VH: B1 VH with A35S, A49T, I58F, Y107A
VL: B1 VL with L2I, N30T, Y71F, N92H, T93M
B15: Mu_10F07_VH (SEQ ID NO: 39)_D99A (antibody, V domains shown)
VH: B1 VH with A35S, A49T, I58F, D99A
VL: B1 VL with L2I, N30T, Y71F, N92H, T93M
B16: Mu_09E09_VH (SEQ ID NO: 35)_Y50A (antibody, V domains shown)
VH: B1 VH with A35S, Y50A
VL: B1 VL
B17: Mu_09E09_VL (SEQ ID NO: 37)_Q90A (antibody, V domains shown)
VH: B1 VH with A35S
VL: B1 VL with Q90A
B18: Mu_09E09_VH (SEQ ID NO: 35)_I101A (antibody, V domains shown)
VH: B1 VH with A35S, I101A
VL: B1 VL
B19: Mu_09E09_VH (SEQ ID NO: 35)_D99A (antibody, V domains shown)
VH: B1 VH with A35S, D99A
VL: B1 VL
B20: Mu_09E09_VH (SEQ ID NO: 35)_T102A (antibody, V domains shown)
VH: B1 VH with A35S, T102A
VL: B1 VL
B21: Mu_10F07_VL (SEQ ID NO: 41)_W96A (antibody, V domains shown)
VH: B1 VH with A35S, A49T, I58F
VL: B1 VL with L2I, N30T, Y71F, N92H, T93M, W96A
B22: Mu_10F07_VL (SEQ ID NO: 41)_L33A (antibody, V domains shown)
VH: B1 VH with A35S, A49T, I58F
VL: B1 VL with L2I, N30T, L33A, Y71F, N92H, T93M
B23: Mu_09E09_VL (SEQ ID NO: 37)_W96A (antibody, V domains shown)
VH: B1 VH with A35S
VL: B1 VL with W96A
B24: Mu_10F07_VL (SEQ ID NO: 41)_Y50A (antibody, V domains shown)
VH: B1 VH with A35S, A49T, I58F
VL: B1 VL with L2I, N30T, Y50A, Y71F, N92H, T93M
B25: Mu_09E09_VH (SEQ ID NO: 35)_P100A (antibody, V domains shown)
VH: B1 VH with A35S, P100A
VL: B1 VL
B26: Mu_19F07_VH (SEQ ID NO: 47)_Y33A (antibody, V domains shown)
VH: EVKLVESEGGLVQPGSSMKLSCTASGFTFSDYAMAWVRQVPEKGLEWVANINYDGSSTYYLDSLKSRFIISRDNAKNILYLQMSSLKSEDTATYYCARGLTWDFDVWGTGTTVTVSS
VL: DIVMTQSHKFMSPSVGDRVSITCKASQDVDTAVAWYQQKPGQSPKLLIYLASTRHTGVPDRFTGSGSGTDFTLTISNVQSEDLADYFCQQYSRFPLTFGAGTKLELKR
B27: Mu_19F07_VH (SEQ ID NO: 47)_Y59A (antibody, V domains shown)
VH: B26 VH with A33Y, Y59A
VL: B26 VL
B28: Mu_19F07_VH (SEQ ID NO: 47)_F104A (antibody, V domains shown)
VH: B26 VH with A33Y, F104A
VL: B26 VL
B29: Mu_19F07_VH (SEQ ID NO: 47)_S56A (antibody, V domains shown)
VH: B26 VH with A33Y, S56A
VL: B26 VL
B30: Mu_19F07_VH (SEQ ID NO: 47)_W102A (antibody, V domains shown)
VH: B26 VH with A33Y, W102A
VL: B26 VL
B31: Mu_19F07_VH (SEQ ID NO: 47)_Y60A (antibody, V domains shown)
VH: B26 VH with A33Y, Y60A
VL: B26 VL
B32: Mu_02D09_VL (SEQ ID NO: 33)_W94A (antibody, V domains shown)
VH: EVQLVESGGGLVKPGGSLTLSCAASGFTFSDYGMHWLRQAPEKGLEWVAYISSGSRAVFFADTVKGRFTISRDNAKNTLFLQMTSLRSDDTAMYYCARDRYDGRGFAYWGQGTLVTVSA
VL: DIVLTQSPATLSVTPGDSVSLSCRASQSISNNLHWYQQTSHESPRLLITYASQSISGIPSRFSGSGSGTDFTLSINSVETEDFGMYFCQQSNSAPLTFGAGTKLELKR
B33: Mu_02D09_VL (SEQ ID NO: 33)_L96A (antibody, V domains shown)
VH: B32 VH
VL: B32 VL with A94W, L96A

target: T1, ANTIBODY EXPRESSION CONTROL; assay: SPR Biacore, expression control
T1 construct: also called mouse anti-canine antibody (capture reagent of the expression control ELISA)
Protocol: The affinity with which candidate mAbs bind canine, feline, and human (SEQ ID NO: 122; Human_OSMR) (R&D Systems, Minneapolis, Minn.) OSMR was determined using surface plasmon resonance (SPR) on a Biacore system (Biacore Life Sciences (GE Healthcare), Uppsala, Sweden). To avoid affinity differences associated with differential surface preparation that can occur when immobilizing antibodies to surfaces; OSMR from each species was directly conjugated to individual surfaces. Immobilization was obtained by amine coupling 5 μg/mL OSMR using N-hydroxysuccinimide (NHS)/1-Ethyl-3-(3-dimethylaminopropyl) carbodiimide (EDC) chemistry. Chips were quenched with ethanolamine and the affinity with which all candidate mAbs bound to the immobilized OSMR was evaluated. All curves were fit to a 1:1 model. […] Results for affinity measurements are described herein.
Data from an ELISA represents an equilibrium state where the antibody is allowed to associate and dissociate over a one-hour period resulting in steady-state binding. Using Biacore, the target protein is immobilized to a surface and the antibody is passed over this surface in a mobile liquid phase. Protein-protein interaction is determined from changes in the surface resonance which allows for calculation of association (kₐ), disassociation (kd), and affinity constant (KD). While not wishing to be bound to one hypothesis we present data from ELISA and Biacore experiments, using the same preparation of antibody, that may result in agreement between the two methods with respect to binding but also may show contradictory results due to the nature of the binding kinetics and different assay dynamics. The data presented in Table A (in combination with experimental results from yeast display mutational analysis in Example 21) allow for the definition of a structure:function relationship to be defined between the anti-OSMR antibodies described here and their ability to bind and block IL-31 and OSM-mediated signaling through the OSMR receptor.

| Kd [nM] | koff [s⁻¹] | kon [M⁻¹ s⁻¹] | Binder |
| --- | --- | --- | --- |
| 0.18 | 5.34e-05 | 297000 | B1 |
| 0.445 | 4.49e-05 | 101000 | B2 |
| 0.257 | 7.96e-05 | 310000 | B3 |
| 0.294 | 8.76e-05 | 298000 | B4 |
| 0.257 | 7.59e-05 | 296000 | B5 |
| 0.138 | 4.66e-05 | 338000 | B6 |
| 0.306 | 8.96e-05 | 292000 | B7 |
| 0.147 | 4.52e-05 | 307000 | B8 |
| 0.208 | 6.34e-05 | 305000 | B9 |
| 0.25 | 7.63e-05 | 305000 | B10 |
| 2.07 | 0.000275 | 132000 | B11 |
| 0.805 | 8.07e-05 | 100000 | B12 |
| 0.317 | 8.91e-05 | 281000 | B13 |
| 0.446 | 4.44e-05 | 99500 | B14 |
| 1.01 | 0.000118 | 117000 | B15 |
| 0.179 | 5.4e-05 | 301000 | B16 |
| 0.249 | 7.12e-05 | 286000 | B17 |

| Kd [nM] | koff [s⁻¹] | kon [M⁻¹ s⁻¹] | Binder |
| --- | --- | --- | --- |
| 0.172 | 5.4e-05 | 314000 | B18 |
| 0.219 | 6.88e-05 | 314000 | B19 |
| 0.172 | 5.33e-05 | 311000 | B20 |
| 0.884 | 9.49e-05 | 107000 | B21 |
| 0.812 | 8.43e-05 | 104000 | B22 |
| 0.345 | 9.76e-05 | 283000 | B23 |
| 0.6 | 0.000105 | 174000 | B24 |
| 0.0786 | 2.35e-05 | 300000 | B25 |
| 0.202 | 6.08e-05 | 301000 | B26 |
| 0.359 | 0.000116 | 324000 | B27 |
| 0.156 | 5.09e-05 | 326000 | B28 |
| 4.08 | 0.000646 | 159000 | B29 |
| 0.139 | 4.35e-05 | 312000 | B30 |
| 4.06 | 0.00061 | 150000 | B31 |
| 0.0977 | 3.16e-05 | 323000 | B32 |
| 0.0659 | 2.43e-05 | 370000 | B33 |
